The values that follow come from US20050065324A1.

The target in assay [1] is human platelet thrombospondin (thrombospondin-1) (human) (UniProt P07996). In words: sandwich ELISA, Ab-4 capture, Ab-8 detection; analyte at 100.0 ng/mL. On the technique in general: ELISA stands for enzyme-linked immunosorbent assay.
The target in assay [2] is recombinant human TSP fragment of ~140 kDa engineered to lack the N-terminal heparin-binding domain (human). Described as above.
Assay [3] has as its target human platelet thrombospondin (thrombospondin-1) (human) (UniProt P07996). In words: sandwich ELISA, Ab-4 capture, Ab-8 detection; analyte at 12.50 ng/mL.
The target in assay [4] is recombinant human TSP fragment of ~140 kDa engineered to lack the N-terminal heparin-binding domain (human). Described as above.
The target of assay [5] is human platelet thrombospondin (thrombospondin-1) (human) (UniProt P07996). The assay can be described thus: sandwich ELISA, Ab-4 capture, Ab-8 detection; analyte at 200.0 ng/mL.
Assay [6] has as its target recombinant human TSP fragment of ~140 kDa engineered to lack the N-terminal heparin-binding domain (human). The assay is described as above.
The target of assay [7] is human platelet thrombospondin (thrombospondin-1) (human) (UniProt P07996). The assay can be described thus: sandwich ELISA, Ab-4 capture, Ab-8 detection; analyte at 25.00 ng/mL.
Assay [8] has as its target recombinant human TSP fragment of ~140 kDa engineered to lack the N-terminal heparin-binding domain (human). Described as above.
Assay [9] concerns the target human platelet thrombospondin (thrombospondin-1) (human) (UniProt P07996). In words: sandwich ELISA, Ab-4 capture, Ab-8 detection; analyte at 3.125 ng/mL.
Assay [10] concerns the target recombinant human TSP fragment of ~140 kDa engineered to lack the N-terminal heparin-binding domain (human). The assay is described as above.
The target in assay [11] is human platelet thrombospondin (thrombospondin-1) (human) (UniProt P07996). In words: sandwich ELISA, Ab-4 capture, Ab-8 detection; analyte at 50.00 ng/mL.
For assay [12], the target named is recombinant human TSP fragment of ~140 kDa engineered to lack the N-terminal heparin-binding domain (human). The assay is described as above.
Assay [13] has as its target human platelet thrombospondin (thrombospondin-1) (human) (UniProt P07996). In words: sandwich ELISA, Ab-4 capture, Ab-8 detection; analyte at 6.250 ng/mL.
Assay [14] concerns the target recombinant human TSP fragment of ~140 kDa engineered to lack the N-terminal heparin-binding domain (human). The description is as above.

UniProt P07996, sequence (P07996 19-1170 T523A): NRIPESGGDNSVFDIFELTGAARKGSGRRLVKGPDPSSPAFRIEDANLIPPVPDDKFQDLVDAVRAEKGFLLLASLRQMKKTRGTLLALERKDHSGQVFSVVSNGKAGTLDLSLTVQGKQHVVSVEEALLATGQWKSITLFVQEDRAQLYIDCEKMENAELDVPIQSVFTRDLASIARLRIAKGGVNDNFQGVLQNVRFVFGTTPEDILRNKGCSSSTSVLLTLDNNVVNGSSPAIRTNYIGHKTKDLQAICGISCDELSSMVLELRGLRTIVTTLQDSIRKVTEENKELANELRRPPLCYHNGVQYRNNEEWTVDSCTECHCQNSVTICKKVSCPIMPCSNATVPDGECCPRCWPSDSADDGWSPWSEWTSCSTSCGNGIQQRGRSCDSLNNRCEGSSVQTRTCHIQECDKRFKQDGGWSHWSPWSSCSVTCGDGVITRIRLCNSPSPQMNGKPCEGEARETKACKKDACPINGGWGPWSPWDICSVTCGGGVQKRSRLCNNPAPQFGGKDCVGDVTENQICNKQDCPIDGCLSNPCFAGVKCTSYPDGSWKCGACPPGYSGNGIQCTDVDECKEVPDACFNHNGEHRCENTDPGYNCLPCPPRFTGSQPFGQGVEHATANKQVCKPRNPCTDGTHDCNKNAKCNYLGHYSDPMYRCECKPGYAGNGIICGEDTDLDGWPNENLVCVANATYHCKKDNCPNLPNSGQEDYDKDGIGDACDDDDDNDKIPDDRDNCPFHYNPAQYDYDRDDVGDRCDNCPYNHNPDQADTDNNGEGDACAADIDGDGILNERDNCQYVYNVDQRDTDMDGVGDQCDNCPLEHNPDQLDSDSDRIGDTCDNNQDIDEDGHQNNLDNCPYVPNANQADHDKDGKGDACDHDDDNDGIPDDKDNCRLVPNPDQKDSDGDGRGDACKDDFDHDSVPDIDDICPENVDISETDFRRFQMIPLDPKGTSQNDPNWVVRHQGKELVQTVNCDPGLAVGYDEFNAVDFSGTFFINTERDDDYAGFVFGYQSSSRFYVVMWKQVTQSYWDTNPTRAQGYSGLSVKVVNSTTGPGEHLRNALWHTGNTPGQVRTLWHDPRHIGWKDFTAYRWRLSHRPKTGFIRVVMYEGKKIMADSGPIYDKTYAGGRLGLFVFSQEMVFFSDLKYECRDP

Consider TSP Ab-4 (Clone A6.1) (antibody), for which the ELISA OD-450 amounted to 2.09 OD-450 in assay [1]; 2.2 OD-450 in [2]; 0.713 OD-450 in assay [3]; 0.662 OD-450 in assay [4]; 2.5 OD-450 in assay [5]; 2.56 OD-450 in assay [6]. Besides, the ELISA OD-450 in assay [7] was 1.08 OD-450; in assay [8] it was 1.17 OD-450; in assay [9], 0.345 OD-450; in [10] it was 0.279 OD-450; in assay [11] it was 1.57 OD-450; in [12], 1.8 OD-450. Also, the ELISA OD-450 in assay [13] stood at 0.514 OD-450; in assay [14], 0.4 OD-450.
